Data on 2 molecules can be found in patent US20210101970A1 (Pfizer, published 2021).

Experiment [1] deals with T1, human CXCR5 (human, UniProt P32302 1-372).
T1 sequence: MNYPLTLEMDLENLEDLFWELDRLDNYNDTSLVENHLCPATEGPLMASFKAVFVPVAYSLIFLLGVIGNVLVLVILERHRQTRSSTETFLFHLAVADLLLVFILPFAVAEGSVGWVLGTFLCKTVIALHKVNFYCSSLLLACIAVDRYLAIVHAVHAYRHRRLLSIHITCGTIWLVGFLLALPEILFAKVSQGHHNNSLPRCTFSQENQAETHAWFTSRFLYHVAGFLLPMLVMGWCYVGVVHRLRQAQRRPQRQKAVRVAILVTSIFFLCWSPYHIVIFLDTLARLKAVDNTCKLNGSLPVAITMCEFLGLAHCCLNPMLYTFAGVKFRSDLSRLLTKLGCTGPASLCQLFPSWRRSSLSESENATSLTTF
Nature of the experiment: cell-based or functional assay.

The target of experiment [2] is T1, human CXCR5. In words: cell-based or functional assay. The source holds these as a separate data set.
Experiment [3] deals with T1, human CXCR5. Nature of the experiment: flow cytometry, human PBMC B cells. The protocol: (§1) The apparent affinity for cell surface CXCR5 of chimeric and humanized CXCR5 fucosylated and afucosylated antibodies was assessed. More specifically, to determine the apparent affinity of chimeric and humanized CXCR5 antibodies to CXCR5-expressing cells, cell binding experiments were performed on human and cynomolgus monkey peripheral blood mononuclear cells (PBMCs) and human tonsillar mononuclear cells (TMCs). The apparent affinity of CXCR5 mab binding to CXCR5+ cells (B cells, bona fide Tfh cells, and circulating Tfh-like cells) was calculated as the EC50 of equilibrium binding titration curves in which the geometric mean fluorescence intensity (gMFI) of the antigen binding population was quantified by flow cytometry.
(§2) Following isolation, PBMCs were plated at a density of 1.0×10⁵ cells per well and CD4+ TMCs were plated at a density of 2.0×10⁵ cells per well in isolation buffer (PBS containing 1% FBS and 1 mM EDTA) in 96 well U-bottom plates. The plates were then centrifuged at 1500 rpm for 5 minutes at room temperature. PBMCs and CD4+ TMCs were resuspended in Fluorescence-activated cell sorting (FACS) buffer (PBS containing 1% FBS) containing human crystallized fragment Fc block (2 μL per well; Biolegend) and 4-fold serial dilutions of the antibodies (11-point dilution series, beginning at 5000 ng/mL for PBMCs and 312.5 ng/mL for CD4+ TMCs) and incubated on ice for 2 hours. PBMCs and CD4+ TMCs were then washed with FACS buffer 3 times and resuspended in 50-100 μL of FACs buffer containing fluorescent-conjugated antibodies for staining lymphocyte subsets and a fluorescent-conjugated secondary antibody against human Ig to detect CXCR5 monoclonal antibodies (mAbs). After incubation for 30 minutes at 4° C., PBMCs and CD4+ TMCs were washed with FACS buffer 2 times and resuspended in 125 μL of 0.5% paraformaldehyde (PFA) in PBS. Plates were stored at 4° C. until analysis by flow cytometry (BD LSRFortessa™ Cell Analyzer, BD Biosciences, Franklin Lakes, N.J.).
(§3) The cell binding titration curves were generated by plotting the gMFI of the antigen binding population against the log of CXCR5 antibody concentration. EC₅₀ values were determined using GraphPad Prism® (version 6.0, GraphPad Software, Inc, San Diego, Calif.) nonlinear-regression curve fits and a sigmoidal log of agonist dose-response model, according to the following equation

The target of a further experiment is T2, mouse CXCR5 (mouse, UniProt Q04683 1-374).
T2 construct: also called mCXCR5
T2 sequence: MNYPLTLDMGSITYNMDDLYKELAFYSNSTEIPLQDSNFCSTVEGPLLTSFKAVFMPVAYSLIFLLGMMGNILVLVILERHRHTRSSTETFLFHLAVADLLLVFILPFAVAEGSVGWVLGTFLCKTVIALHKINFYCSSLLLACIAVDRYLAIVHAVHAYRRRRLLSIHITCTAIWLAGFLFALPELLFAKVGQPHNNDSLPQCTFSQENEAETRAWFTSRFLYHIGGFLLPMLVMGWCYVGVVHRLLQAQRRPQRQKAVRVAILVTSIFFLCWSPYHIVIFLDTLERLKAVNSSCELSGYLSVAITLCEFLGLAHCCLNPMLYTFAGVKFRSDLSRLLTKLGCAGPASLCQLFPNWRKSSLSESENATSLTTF
Nature of the experiment: flow cytometry on cells expressing mouse CXCR5.

The target of experiment [4] is T1, human CXCR5. In words: flow cytometry, B cells from human PBMCs (FIG. 5); comparator 11A7.
A further experiment addresses T3, XC280 (human, UniProt P32302 2-372).
T3 construct: also called hCXCR5 W19K
T3 sequence: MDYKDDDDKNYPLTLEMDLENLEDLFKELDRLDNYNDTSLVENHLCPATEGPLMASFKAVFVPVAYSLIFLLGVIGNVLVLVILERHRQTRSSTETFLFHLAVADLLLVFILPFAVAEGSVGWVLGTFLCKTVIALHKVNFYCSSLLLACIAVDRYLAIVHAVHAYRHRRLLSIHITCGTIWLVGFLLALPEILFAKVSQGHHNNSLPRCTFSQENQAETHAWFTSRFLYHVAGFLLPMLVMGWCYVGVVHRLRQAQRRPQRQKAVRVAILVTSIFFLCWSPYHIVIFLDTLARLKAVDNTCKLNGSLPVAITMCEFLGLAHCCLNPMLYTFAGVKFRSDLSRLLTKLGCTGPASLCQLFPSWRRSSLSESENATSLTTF
Nature of the experiment: flow cytometry on HEK-293T cells transiently expressing the FLAG-tagged mutein; ratio of gMFI of the antibody to gMFI of anti-FLAG PE. The protocol: The cells were analyzed by flow cytometry using an Accuri (BD Biosciences Franklin Lakes, N.J.). The geometric mean fluorescence intensity (gMFI) was determined and the ratio for the gMFI of each CXCR5 antibody and anti-flag was calculated.

Experiment [5] has as its target T4, cynomolgus monkey CXCR5 (cynomolgus monkey, UniProt P32302 1-372 (human entry)).
T4 chain: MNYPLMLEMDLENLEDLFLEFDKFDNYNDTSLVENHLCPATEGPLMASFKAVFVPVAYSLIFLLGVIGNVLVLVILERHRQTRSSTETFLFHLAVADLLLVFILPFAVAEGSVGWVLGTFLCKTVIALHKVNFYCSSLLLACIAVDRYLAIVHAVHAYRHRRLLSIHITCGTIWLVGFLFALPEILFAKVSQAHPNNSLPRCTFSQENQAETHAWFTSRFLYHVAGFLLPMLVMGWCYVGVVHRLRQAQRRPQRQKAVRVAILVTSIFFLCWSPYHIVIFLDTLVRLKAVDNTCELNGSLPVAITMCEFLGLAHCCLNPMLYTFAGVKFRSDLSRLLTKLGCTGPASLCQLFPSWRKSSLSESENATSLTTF
In words: cell-based or functional assay.

The target of experiment [6] is T1, human CXCR5. In words: flow cytometry, human PBMC B cells. The source holds these as a separate data set.
Experiment [7] has as its target T1, human CXCR5. In words: flow cytometry, human tonsil Tfh cells. Here is the method:
Following centrifugation, red blood cell lysis was performed on the pellet using an ammonium chloride lysis buffer. Platelets were removed using a low speed centrifugation (200×g) for 10 minutes in Phosphate-Buffered Saline (PBS)/2% FBS/2 mM Ethylenediaminetetraacetic acid (EDTA). CD4+ T cells were purified out of the TMC mixture using an EasySep™ Human CD4+ T Cell Enrichment Kit, according to the manufacturer's instructions ([…] Technologies, Vancouver, BC, Canada).
as §2, §3

Experiment [8] addresses T4, cynomolgus monkey CXCR5. In words: flow cytometry, cynomolgus PBMC B cells. Here is the method: as §1, §2, §3
For experiment [9], the target named is T1, human CXCR5. In words: flow cytometry, human PBMC Tfh-like cells. The protocol:
as §1
(§4) Following isolation, PBMCs were plated at a density of 1.0×10⁵ cells per well and CD4+ TMCs were plated at a density of 2.0×10⁵ cells per well in isolation buffer (PBS containing 1% FBS and 1 mM EDTA) in 96 well U-bottom plates. The plates were then centrifuged at 1500 rpm for 5 minutes at room temperature. PBMCs and CD4+ TMCs were resuspended in Fluorescence-activated cell sorting (FACS) buffer (PBS containing 1% FBS) containing human crystallized fragment Fc block (2 μL per well; Biolegend) and 4-fold serial dilutions of the antibodies (11-point dilution series, beginning at 5000 ng/mL for PBMCs and 312.5 ng/mL for CD4+ TMCs) and incubated on ice for 2 hours. […]

The target in experiment [10] is T4, cynomolgus monkey CXCR5. Nature of the experiment: flow cytometry, cynomolgus PBMC Tfh-like cells. Here is the method:
as §1, §4

The target of experiment [11] is T1, human CXCR5. In words: flow cytometry, B cells from human PBMCs (FIG. 5); fucosylated.

B1: 11A7 (reference antibody) (antibody, human IgG1, lambda, V domains shown)
VH: EVQLVESGGGLVQPGGSLRLSCAASGFTVSSNYMSWVRQAPGKGLEWVSVIYSGGSTYYADSVKGRFTISRHNSKNTLYLQMNSLRAEDTAVYYCARGYVVWGQGTLVTVSS
VL: QPVLTQPPSVSKDLRQTATLTCTGNSNNVGNQGATWLQQHQGHPPKLLSYKNNNRPSGISERFSASRSGNTASLTITGLQPEDEADYYCSAWDSSLSAWVFGGGTQLTVLG
notes: fucosylated
For the molecule B1, the “ADCC Activity Average EC50, Human B Cells” value with human CXCR5 [1] is 4.35 pM. The “% Inhibition CXCL13” value with human CXCR5 [2] stood at 106%. Moreover, the “EC50, stimulation of CXCL13-inhibited cAMP production” value with human CXCR5 [2] worked out at 1400 pM. The results for the 50% effective concentration (EC50) with human CXCR5 [3] and in the experiment with human CXCR5 [4] were 0.564 nM and 0.926 nM, respectively. Moreover, the binding result with mouse CXCR5 was “no binding”; in the experiment with XC280, “no binding (tested: 1 or 3 µg/ml (not on the sheet))”.

B2: Humanized 11G2 154/155 (antibody, human IgG1, kappa, V domains shown)
VH: EVQLVESGGGLVQPGGSLRLSCAASGFTFTDFYMSWVRQAPGKGLEWVGFIRNKANGYTTEYSASVKGRFTISRDNAKNSLYLQMNSLRAEDTAVYYCARVYGSTLHYWGQGTLVTVSS
VL: DIQMTQSPSSLSASVGDRVTITCRASESVEYHGTSLMHWYQQKPGKAPKLLIYAASNVESGVPSRFSGSGSGTDFTLTISSLQPEDFATYYCQQSRKVPWTFGQGTKVEIKR
notes: fucosylated human IgG1/kappa; also called h11G2 VL XC154/VH XC155
Regarding B2, in the experiment with human CXCR5 [1], the “ADCC Activity Average EC50, Human B Cells” value is 254 pM; the “ADCC Activity Average EC50, Human Tfh Cells” value is 0.77 pM; the “ADCC Activity Average EC50, Human Tfh-like Cells” value came to 7.98 pM. Moreover, the “ADCC Activity Average EC50, NHP B Cells” value with cynomolgus monkey CXCR5 [5] stood at 39.1 pM. Moreover, in the experiment with human CXCR5 [2], the “% Inhibition CXCL13” value stood at 121% and the “EC50, stimulation of CXCL13-inhibited cAMP production” value is 753 pM. For the same molecule, in the experiment with human CXCR5 [6], the “fold greater affinity than 2C9” value was not below 10 fold, the “fold greater affinity than 11A7” value was not below 100 fold, the “fold higher affinity than 2C9” value is approximately 10 fold and the “fold higher affinity than 11A7” value was approximately 100 fold. In addition, it took 0.00708 nM to reach a half-maximal effect with human CXCR5 [3] (EC50). Further, a half-maximal response with human CXCR5 [7] (EC50) required 8.25 pM. For the same molecule, in the experiment with cynomolgus monkey CXCR5 [8], the midpoint of the response, the EC50, lay at 4.13 pM. Moreover, in the experiment with human CXCR5 [9], the EC50 came out at 5.92 pM. Besides, in the experiment with cynomolgus monkey CXCR5 [10], a half-maximal response (EC50) required 5.65 pM. In the experiment with human CXCR5 [11], this molecule yielded an EC50 of 9.63 pM.
